{"source": "patent US20200317768A1", "about": "(published 2020)", "binders": {"B1": {"name": "MS_M103205H000-SG1/M103202LO00-SK1 (antibody, human IgG1, kappa, V domains shown)", "VH": "QVTLKESGPVLVKPTETLTLTCTVSGIDLSSYDISWVRQAPGKGLEWVGIISYAGSTYYASWAKGRLTISKDTSKNQVVLTMTNMDPVDTATYYCARGVPAYSTGGDLWGQGTLVTVSS", "VL": "DIVMTQSPATLSLSPGERATLSCQSSQSVYDNNWLSWFQQKPGQPPKLLIYWASTLASGVPSRFSGSGSGTDFTLTISSLQPEDAATYYCAGGYGGGLYAFGQGTKVEIKR", "notes": "Humanized MST1032, not pH-dependent; also called MS1032LO00-SG1; Ab001"}}, "key": {"[1]": {"target": "T1, Mouse latent myostatin (mouse, UniProt O08689 26-267; O08689 268-376)", "T1 construct": "signal 1-24", "T1 sequence 1": "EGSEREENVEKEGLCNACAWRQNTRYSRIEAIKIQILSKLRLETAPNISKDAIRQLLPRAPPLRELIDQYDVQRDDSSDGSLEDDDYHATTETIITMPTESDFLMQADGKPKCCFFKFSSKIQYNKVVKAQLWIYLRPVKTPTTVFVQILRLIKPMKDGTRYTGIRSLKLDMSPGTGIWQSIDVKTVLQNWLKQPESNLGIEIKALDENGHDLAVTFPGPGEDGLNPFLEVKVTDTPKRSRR", "T1 sequence 2": "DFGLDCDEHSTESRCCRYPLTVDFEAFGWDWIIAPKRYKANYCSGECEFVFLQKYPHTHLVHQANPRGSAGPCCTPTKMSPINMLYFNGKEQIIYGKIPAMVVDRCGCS", "experiment": "SPR (BIACORE T200), 37 C, pH7.4, avidity condition (capture 185 RU), 1:1 fit; pH 7.4"}, "[2]": {"target": "T2, Cynomolgus monkey latent myostatin (cynomolgus monkey, UniProt Q95J86 25-266; Q95J86 267-375)", "T2 construct": "signal 1-24; also called Cyno latent myostatin", "T2 sequence 1": "T1 sequence 1 with G2N, R5Q, E6K, A19T, R25K, Y26S, R59K, A107V, K140E, S173N", "T2 sequence 2": "T1 sequence 2", "experiment": "SPR (BIACORE T200), 37 C, pH7.4, avidity condition (capture 185 RU), 1:1 fit; pH 7.4"}, "[3]": {"target": "T3, Human latent myostatin (human, UniProt O14793 25-266; O14793 267-375)", "T3 construct": "Biotinylated in the ELISAs; also called human myostatin latent form", "T3 sequence 1": "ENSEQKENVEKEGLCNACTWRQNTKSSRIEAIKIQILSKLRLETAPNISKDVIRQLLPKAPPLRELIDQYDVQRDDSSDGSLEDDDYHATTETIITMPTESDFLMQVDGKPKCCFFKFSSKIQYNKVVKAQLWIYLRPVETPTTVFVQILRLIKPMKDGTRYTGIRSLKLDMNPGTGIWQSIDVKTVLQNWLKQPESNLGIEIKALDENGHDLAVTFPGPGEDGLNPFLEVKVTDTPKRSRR", "T3 sequence 2": "T1 sequence 2", "experiment": "SPR (BIACORE T200), 37 C, pH5.8, 1:1 fit; title prints avidity, by the text the affinity condition (capture 18.5 RU); pH 5.8", "description": "(§1) The kinetic parameters of anti-latent myostatin antibodies against human, cynomolgus monkey (cyno), and mouse latent myostatin were assessed at 37° C. at pH7.4 using a BIACORE® T200 instrument (GE Healthcare). ProA/G (Pierce) was immobilized onto all flow cells of a CM4 chip using amine coupling kit (GE Healthcare). Anti-latent myostatin antibody and analytes were prepared in ACES pH7.4 (20 mM ACES, 150 mM NaCl, 1.2 mM CaCl₂), 0.05% TWEEN® 20, 0.005% NaN₃). […] Then human, cyno, or mouse latent myostatin was injected at 3.125 to 50 nM prepared by two-fold serial dilution, followed by dissociation. The sensor surface was regenerated with 25 mM NaOH. Kinetic parameters were determined by processing and fitting the data to a 1:1 binding model using BIACORE® T200 Evaluation software, version 2.0 (GE Healthcare).\n(§2) All experimental settings were the same as in Example 7, except that measurements were also performed in ACES pH5.8 buffer in addition to ACES pH7.4 condition. Some antibodies were only measured against human latent myostatin. Antibody capture level was aimed at 185 RU and 18.5 RU, for avidity and affinity assay, respectively. Kinetic parameters were determined using 1:1 Binding fitting using BIACORE® T200 Evaluation software, version 2.0 (GE Healthcare)."}, "[4]": {"target": "T1, Mouse latent myostatin", "experiment": "SPR (BIACORE T200), 37 C, pH5.8, 1:1 fit; title prints avidity, by the text the affinity condition (capture 18.5 RU); pH 5.8", "description": "as §1, §2"}, "[5]": {"target": "T2, Cynomolgus monkey latent myostatin", "experiment": "SPR (BIACORE T200), 37 C, pH5.8, 1:1 fit; title prints avidity, by the text the affinity condition (capture 18.5 RU); pH 5.8", "description": "as §1, §2"}, "[6]": {"target": "T3, Human latent myostatin", "experiment": "SPR (BIACORE T200), 37 C, pH7.4, 1:1 fit; title prints avidity, by the text the affinity condition (capture 18.5 RU); pH 7.4", "description": "as §1, §2"}, "[7]": {"target": "T1, Mouse latent myostatin", "experiment": "SPR (BIACORE T200), 37 C, pH7.4, 1:1 fit; title prints avidity, by the text the affinity condition (capture 18.5 RU); pH 7.4", "description": "as §1, §2"}, "[8]": {"target": "T2, Cynomolgus monkey latent myostatin", "experiment": "SPR (BIACORE T200), 37 C, pH7.4, 1:1 fit; title prints avidity, by the text the affinity condition (capture 18.5 RU); pH 7.4", "description": "as §1, §2"}, "[9]": {"target": "T2, Cynomolgus monkey latent myostatin", "experiment": "SPR (BIACORE T200), 37 C, pH5.8, avidity condition (capture 185 RU), 1:1 fit; pH 5.8", "description": "as §1, §2"}}, "note": "Where a chain is given by its changes, count along the chain named."}
{"binder": "B1", "values": [{"measurement": "Kd", "setting": "[1]", "result": 0.0471, "unit": "nM"}, {"measurement": "koff", "setting": "[1]", "result": "7.18e-05", "unit": "s⁻¹"}, {"measurement": "kon", "setting": "[1]", "result": "1.52e+06", "unit": "M⁻¹ s⁻¹"}, {"measurement": "Kd", "setting": "[2]", "result": 0.066, "unit": "nM"}, {"measurement": "koff", "setting": "[2]", "result": "8.08e-05", "unit": "s⁻¹"}, {"measurement": "kon", "setting": "[2]", "result": "1.21e+06", "unit": "M⁻¹ s⁻¹"}, {"measurement": "Kd", "setting": "[3]", "result": 0.215, "unit": "nM"}, {"measurement": "koff", "setting": "[3]", "result": 0.000235, "unit": "s⁻¹"}, {"measurement": "kon", "setting": "[3]", "result": "1.09e+06", "unit": "M⁻¹ s⁻¹"}, {"measurement": "Kd", "setting": "[4]", "result": 0.0438, "unit": "nM"}, {"measurement": "koff", "setting": "[4]", "result": "7.08e-05", "unit": "s⁻¹"}, {"measurement": "kon", "setting": "[4]", "result": "1.62e+06", "unit": "M⁻¹ s⁻¹"}, {"measurement": "Kd", "setting": "[5]", "result": 0.139, "unit": "nM"}, {"measurement": "koff", "setting": "[5]", "result": 0.000196, "unit": "s⁻¹"}, {"measurement": "kon", "setting": "[5]", "result": "1.41e+06", "unit": "M⁻¹ s⁻¹"}, {"measurement": "Kd", "setting": "[6]", "result": 0.23, "unit": "nM"}, {"measurement": "koff", "setting": "[6]", "result": 0.000245, "unit": "s⁻¹"}, {"measurement": "kon", "setting": "[6]", "result": "1.07e+06", "unit": "M⁻¹ s⁻¹"}, {"measurement": "Kd", "setting": "[7]", "result": 0.122, "unit": "nM"}, {"measurement": "koff", "setting": "[7]", "result": 0.00016, "unit": "s⁻¹"}, {"measurement": "kon", "setting": "[7]", "result": "1.31e+06", "unit": "M⁻¹ s⁻¹"}, {"measurement": "Kd", "setting": "[8]", "result": 0.209, "unit": "nM"}, {"measurement": "koff", "setting": "[8]", "result": 0.000213, "unit": "s⁻¹"}, {"measurement": "kon", "setting": "[8]", "result": "1.02e+06", "unit": "M⁻¹ s⁻¹"}, {"measurement": "Kd", "setting": "[9]", "result": 0.00883, "unit": "nM"}, {"measurement": "koff", "setting": "[9]", "result": "1.58e-05", "unit": "s⁻¹"}, {"measurement": "kon", "setting": "[9]", "result": "1.79e+06", "unit": "M⁻¹ s⁻¹"}]}
